# Test results: the nanobody polyreactivity screen of Harvey et al. (2022)
# Assay: yeast display, Sf9 membrane polyspecificity reagent, FACS + sequencing; frameworks hold sequencing errors
# In short: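 Genes from sorted yeast were amplified by colony PCR, read by MiSeq 2 × 250 sequencing and filtered on CDR length. These cells carried a synthetic nanobody library in Saccharomyces cerevisiae BJ5465 and were sorted by FACS into low and high (top ~1%) gates on anti-HA and streptavidin fluorescence. Polyreactivity is labelled according to the gate of origin.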
row,Sequence,polyreactivity (PSR sort gate)
1,QVQLVESGGGLVQAGGSLRLSCAASGSIFVFNAMGWYRQAPGKERELVAAITSGGRTYYADSVKGRFTISRDNAKNTVYLQMNSLKPEDTAVYYCARRYRARGSMYYWGQGTQVTVSS,high polyreactivity
2,QVQLVESGGGLVQAGGSLRLSCAASGFTLNGYAMGWYRQAPGKERELVAAISSSGGRTYYADSVKGRFTISRDNAKNTVYLQMNCLKPEDTAVYYCAAVVYYEDGYWGQGTQVTVSS,low polyreactivity
3,QVQLVESGGGLDQAGGSLRLSCAASGYIVRNAMGWYRQAPWKERELVAAISRRGGSTYYADSVKGRFTISRDNAKNTVYLQMNSLKPEDTAVYYCAKDNVIPSFVADYYYWGQGTQVTVSS,high polyreactivity
4,QVQLVESGGGLVQAGGSLRLSCAASGSIFASYAMGWYRQAPGKERELVAAIRSSGGRTYYADSVKGRFTISRDNAKNTVYLQMNSLKPEDTAVYYCNARRPGYRPYGYDYWGQGTQVTVSS,high polyreactivity
5,QVQLVESGGGLVQAGGSLRLSCAGSGIIFSRYAMGWYRQAPGKERELVAAISSSGGTTYYADSVKGRFTISRDNAKNTVYLQMNSQKPEDTAVYYCYAPAFYKYKSFYAHSGYDYWGQGTQVTVSS,high polyreactivity
6,QVQLVESGGGLVQAGGSLRLSCAASGRIFYLYAMGWYRQAPGTEREMVAAITWSGGSTTYADSVKGRFTISRDNAKNTVYLQMNSLKPEDTAVYYCYADGWIFPSFSPMDYWGQGTQVTVSS,low polyreactivity
7,QVKLVESGGGLVQAGGSLRLSCAASGRIFYYYAMGWYRPAPGKERELVAGITTGGGTNYADSVKGRFTISRDNAKNTVYLQMNSLKPEDTAVYYCATGTEGYSDDYGYWGQGTQVTVSS,low polyreactivity
8,QVQLVESGGGLVQAGGSLRLSCAASGSTFARYAMGWYRQAPGKERELVAGISTSGGRTYYADSVKGRFTISRDNAKNTVYLQMTSLKPEDTAVYYCAKALSQTWYDGQYGYWGQGTQVTVSS,low polyreactivity
9,QVQLVESGGGLVQAGGSLRLSCAASGRILSWYAMGWYRQAPGKVRELVAAIDSGGRTNYADSVKGRFTISRDNAKNTVYLQMNSLKPEDTAVYYCAKEGYWPRYWERYDYWGQGTQVTLSS,low polyreactivity
10,QVQLVESGGGLVQAGGSLRISCAPSGSTFPRYAMGWYRQAPGKEREFVAVIWSGGSTYYADSVKGRFTISRDNAKNTVYLQMNSLKPEDTAVYYCAAEYHTLSKYSGYATHDYWGQGTQVTVSS,low polyreactivity
11,QVQLVESGGGLVQAGGSLRLSCAASGSIFQYNAMGWYRQAPGKERELVAAINGGGSTYYADSEKGRFTISRDNAKNTVYLQMNSLKPEDTAVYYCAADGGAYSYRGPGKFGIEDSWGQGTQVTVSS,low polyreactivity
12,QVQLVESGGGLVQAGGSLRLSCAASGYTFRVYTMGWYRQAPGTERELVAAISRRGSRTYYADSVKGRFTISRDNAKNTVYLQMNSLKPEDTAVYYCAAGIPYPDDYWGQGSQVTVSS,high polyreactivity
13,QVQLVESGGGLVQAGGSLRLSCAASGRIFDVNVMGWYRQAPGKERELVADISSGGGTDYADSVKGRFTISRDNAKNTVYLQMNILKQEDTAVYSCDWGQGTQVTVSS,low polyreactivity
14,QVQLVESGGGLVQAGGSLRLSCAASGFNFDGYAMGWYRQAPGKERELVAAITYSGGSTYYADSVKGRFTISRDNAKNTVYLQMNSLKPEDTAVYYCAAESYVYGGSDYDYWGQGTQVTVSS,low polyreactivity
15,QDQLVESGGGLVQAGCSLRLSCAASGSTFRTYAMGWYRQAPGKERDLVAAIRRGGSTKYADSVKGRFTISRDNAKYTVYLQINSLIPEDTELYYCAAVTYVPRSTNGISLYDYWGQGTQVTVSS,high polyreactivity
16,QVQLVESGGGLVQAGGSLRLSCAASGITFKSYDMGWYRQAPGKERELVAAITSGVSTHYADSVKGRFTISRDNAKNTVYLQMNSLKPEDTAVYYCAADYTWYYPYWIMDYWGQGTQVTVSS,low polyreactivity
17,QVQLVEAGGGLVQAGGSLRLSCAASGRTFTYYTMGWYRQAPGKERELVATITSGGITNYADSVKGRFTISRDNAKNTVYLQMNSLKTEDTAVYYCDKRWVNKYYYWGQGTQVTVSS,high polyreactivity
18,QEQLQECGGGLVQAGGSLRLSCAASGNVFDADIMGWYRQAPGKERELVASVTDGGSTNYADSVKGRFTFSRDIAKNTVYLQMNSLKPEDTAVYYCAAIVYPDILTYFDYDYDYFYWGQGTQVTVGS,low polyreactivity
19,QVQLVESGGGLVQAGGSLRLSCAASGFTFTWNTMGWYRQAPGKERELVAAITTGGRTYYADSVKGRFTISRDNAKNTVYLQMNSLKPEDTAVYYCNKLFIAKYDSWGQGTQVTVSS,high polyreactivity
20,QVQLVESGGGLVQAGGSLRLSCAASGIIFASYALGWYRQAPGKERELVAAISGGGSTYYADSVKGRFTISRDNAKNTVYLQMNSLKPEDTAVYYCNADVTLRLWAYYYYRYNYWGQGTQVTVSS,low polyreactivity
21,QVQLVESGGGLVQAGGSIRLTCAASGRIFYGNAMGCYRQAPGKERELVAAISSGTSTNYADSVKGRFTISRDNAKTTVYLQMNSLKPEDTAVYYCAAGSYSRYLYSLYFDFDYWGQGTQVTVSS,low polyreactivity
22,QVQLVDSGGGLVQAGGSLRLSCAASGGLFIVNDMGWYIQAPGKEMELVAAITSGGGKNYADSVKGRFTISRDNAKNTVYLQMNSLKPEVTAVYYCARDTYRQIVSNESYGFWGHGTQVTVSS,low polyreactivity

row,Sequence,polyreactivity (PSR sort gate)
1,QLQLVESGGGLVQAGGSHRLSCAASGSIFTGYAMGRSRQAPGKQREFVAAISWSGSSTYYADSVKGRFTISRDNGKNTVYVQMNSLKPEDTAVYYCNAVKGWWGYYSSVDFDYWGQGTQVTVSS,low polyreactivity
2,QVQLVESGGGLVQAGGSLRLSCAASGRISPKNAMGWYRQAPGKERELVATIRKIGGRTYYADSVKGRFTISRDNAKNTVYLQMNSLKPEDTAVYYCATDFAPSYYPDRFDYRGQGTQVTVSS,low polyreactivity
3,QVQLVESGGGLVQAGGSLRLSCAASGIIFNHYAMGWYGQAPGKERELVAAISRRGGSTYDADSVKGRFTISRDNAKNTVYLQMNSLKPEDTAVYYCNDRSFATGSKVPARGYWGQGTQVTVSS,high polyreactivity
4,QDQLVESAVGLVQAGGSLRLSCDASGSTFDFYDIGWYRQAPGKERELVATIRWSGDTTYYADSVKGRFTISRDNAKNTVYLQMTRLKPEDTAVYYCNADYFGQESWWMDYWGQGTQVTVSS,low polyreactivity
5,QVQLVESGGGLVQAGGSLRLSCAASGSIFRFNAMGWYRQAPGKERELVATISRSGGSTYYADSVKGRFTISRDNAKNTVYLQMNSLKPEDTAVYYCAADAYPTWPEYDGLYFKYDYWGQGTQVTVSS,high polyreactivity
6,QVQLVESGGGLVQAGGSLRLSCAASGFTFGNAMGWYRQAPGKERELVAAITVNGGTTNYADSVKGRFTISRDNAKNTVYLQMNSLKPEDTAVYYCNVDTSYGAAGDYWGQGTQVTVSS,low polyreactivity
7,QVQLVESCGGLVQAGGSLRLSCAASGSTFAVNVMGWYRQAPGKERELDATITYRDGRTYYADSVKGRFTISRDNAKNTVYVQMNSLKPEVTALYYCAADWYTTYDYWGQGTQVTVSS,low polyreactivity
8,QVQLVESGGGLVQAGGSLRLSCAASGRTFGYTMGWYRQAPGKERELVAAITRSVTTYYADSVKGRFTISRDNAKNTVYLQMNSLKPEDTAVYYCAARPKYPYGRFGYYWGQGTQVTVSS,high polyreactivity
9,QVQLVESGGGLVQAGGSLRLSCAASGSTFPVYAMGWYRQAPGKERELVASLSSGAETNYADSVKGRFTISRDNAKNTVYLQLISLTPEDTAVYYCAATVPLRTIRPRSYGYWGQGTQVTVSS,low polyreactivity
10,QVQLVESGGGLVQAGGSLRLICAASGLIFGKYAMGWYRQAPGKEREFVAAITRSGGSTYYADSVKGRFTISRDNAKNTVYLQMNSLKPEDTAVYYCAAYSLKYYNGYDYWGQGTQVTVSS,high polyreactivity
11,QVQLVESGGGLVQAGGSLRLSCAASGRILSYYAMGWYRQAPGKERELVAAITRGGSTYYADSVKGRFTISRDNAKNTVYLQMNSLKPEDTAVYYCAARKKTTYRDWGRHDYWGQGTQVTVSS,high polyreactivity
12,QVQLVESGGGLVQAGGSLRLSCAASGRIFFYYAMGWYRQAPGKERELVAAISQSGGSSYYADSVKGRFTISRDNAKNTVYLQLTSLKPEDTAVYYCAADDRYYTYGYDYWGQGTQVTVSS,low polyreactivity
13,QVQLVESGGGLVQAGGSLRLSWAASGRTLWYYTMGWYRQAPGKERELLAGITVSGGSTYYADSVKGRFTISRDNAKNTVYLQMNSLKPEDTAVYYCADGYYSTWKQASRYRYYYWGQGTQVTVSS,high polyreactivity
14,QVQLEESGGGLVQAGGSLRLSCAASGRTFVLNVMGWYRQAPGKERELVATISGVGSTNYADSVKGRFTISRDNAKNTVYLQMNSLKPEDTAVYYCAKDPHVGRWWDLYSPYYSWGQGTQVTVSS,low polyreactivity
15,QVQIVESGRGLVQAGGSLRLTCAASGINFHFNDMGWYRQAPRKQRELVAAIDSTGSTNYADSVKGRFTISRDNAKNTVYLQMNSLKPEDTAVYYCAVLNHRVDSVLTRYYYWGQGTQVTVSS,low polyreactivity
16,QVQLVESGGGLVQAGGSLRLSCAASGRIFWVNAMGWYRQAPGKERELVARIRGRSGSTYYADSVKGRFTISRDNAKNTVYLQMHSLKPEDTAVYYCNADFNRKVAGTPEVDYWGQGTQVTVSS,high polyreactivity
17,QVQLVESGGGIVQAGGSLRLSCAASGSIFWVNVMGWYRQAPGKEREFVAAITRSGGSTYYADSVKGRFTISRDNAKNTVYLQMKSLKPEDTAVYYCNRRGRRGYDYWGQGTQVTVSS,high polyreactivity
18,QVQLVESGGGLVQAGGSLRLSCAASGSIFYSNAMGWSRQAPGKEREFVAAISAGGGSTYYADSVKGRFTISRDNATNTVYLQMISLKPEDTAVYYCAADYFYPYYGAMDYWGQGTQVTVSS,low polyreactivity
19,QVQLVESGGGFVQAGGSLRLSCAASGLSFNFNAMGWYRQAPGKERELVAAIDSGGDTNYADSVKGRFSISRDNEKNTVYLQMNSLKPEDTAVYYCNTDRYPYAFEYWGQGTQVTVSS,low polyreactivity
20,QVQLVESGGGLVQAGGSLRLSCAASGIIIDYNAMGWYRQAPGKERELVAAISSRGGSTYYADSVKGRFTISRDNAKNPVYFQMNSLKPEDTAVYYCAGRPDHQRYDYWGQGSQVTVSS,low polyreactivity
21,QVQLVESGVGIVQAGGSLRVSCAASGRIFYYYAMGWYRHAPGKERELVAVINSGDSTNYADSVKGRFTISRDNAKNSVYFQMNSLKPEDTAVYYCAKGVISDLDYWADYDYWGQGTQVSVSS,low polyreactivity
